According to the DeepSol protein solubility set:

Test: soluble on expression in E. coli; label from the status in PepcDB or PDB records

Sequence: MAKKTSSGRGKLPPGPTPLPVIGNILQIGIKDISKSLTNLSKVYGPVFTLYFGLKPIVVLHGYEAVKEALIDLGEEFSGRGIFPLAERANRGFGIVFSNGKKWKEIRRFSLMTLRNFGMGKRSIEDRVQEEARCLVEELRKTKASPCDPTFILGCAPCNVICSIIFHKRFDYKDQQFLNLMEKLNENIKILSSPWIQICNNFSPIIDYFPGTHNKLLKNVAFMKSYILEKVKEHQESMDMNNPQDFIDCFLMKMEKEKHNQPSEFTIESLENTAVDLFGAGTETTSTTLRYALLLLLKHPEVTAKVQEEIERVIGRNRSPCMQDRSHMPYTDAVVHEVQRYIDLLPTSLPHAVTCDIKFRNYLIPKGTTILISLTSVLHDNKEFPNPEMFDPHHFLDEGGNFKKSKYFMPFSAGKRICVGEALAGMELFLFLTSILQNFNLKSLVDPKNLDTTPVVNGFASVPPFYQLCFIPIHHHH
- soluble on expression in E. coli: soluble

Sequence: MGSDKIHHHHHHMKQSEQEEPLTGGNVSDVSRIGETVRREQKPESLRVHRVLQHLEQKGFEGSPRYLGIDPQGREILSFIEGEAGNYPLQPYMQSDRVLEETARLLRSYHEAVADFPIPTDWQPLDGTPEPLELICHNDFAVYNVIFQNERPVGIIDFEVAAPGPRIWDIAYTMYTFVPLSRHQMTEDGEPAHYNPVNDQERIRRRVLLFLSAYGKAELKDEMYETVLLRVEALIKTIHRRAAEGDDAFQRMIDDGHVTHYEQEIDFLKREGADWFR
- soluble on expression in E. coli: not soluble

Sequence: MSHLRIPANWKVKRSTPFFTKENVPAALLSHHNTAAGVFGQLCVMEGTVTYYGFANETATEPEVKVVINAGQFATSPPQYWHRVELSDDARFNIHFWVEEDHQGEEMYQQKKA
- soluble on expression in E. coli: not soluble

Sequence: MSLKILLMLLCVSVLGCSKNSVESEKPVDVLLIGGGIMSATLGTYLNELEPGWTIEMVERLDKVAEESSNGWNNAGTGHSAFCELNYTSEAADGSMDISKAVAINENFEISKQFWAYQVDRKVLNDPKSFINNVPHMSFVWGDDNVAFLKKRHAALQHSSLFRGMEYSEDPEQIKQWVPLVMEGREPGQKIAATRMSIGTDVNFGEITRQLVGSLSAKDTFKLRLQHEVRDLKRNDDNTWTVTMADLANGDKETSVKARFVFIGAGGGALKLLQMSGIPEAEGYAGFPVGGSFLATTNPDVVKRHLAKVYGKASVGSPPMSVPHLDTRMIDGKPVLLFGPFATFSTKFLKNGSLWDLPGSVTSGNIGPMFNAGIDNFDLSQYLIGQLMLSQDDRMASLREYFPEARDEDWKLVQAGQRVQIIKKDAEKGGVLQFGTEVVTAADGSVAALLGASPGASTAAPIMLSVLEKAFKDKVATPEWQARLKEIVPSYGRKLNNDIELTNSTRAWSSERLQLIHVPVQEGGSHHHHHH
- soluble on expression in E. coli: soluble

Sequence: MSLRILLVDDVQLDRMQLAIRLKQLGHIVKAVGSGIEALNTYESFDPELVLLDISMPEMNGFEVSLHVRETFPDWIPIIFLSSHEEPEMIAKAIDAGGDDYLIKPVDKLVLNSKLIAMQRIAHMRRELKQATAQLEQVNQLLTQQANEDGLTKLFNRRYIDQKLDSMVAWHGRHHMPMAMILLDVDFFKPFNDNYGHIEGDRCLQAIANQLKATFCRSGEYVGRYGGEEFVVLLSSTDAQTAEREAERIQEAMYFLDYQHEFSSVANRVTVSQGVFVFQPTGKENQADLYATADRALYTSKSLGRNTYTMVNASEGHHHHHH
- soluble on expression in E. coli: soluble

Sequence: MGDTFIRHIALLGFEKRFVPSQHYVYMFLVKWQDLSEKVVYRRFTEIYEFHKTLKEMFPIEAGAINPENRIIPHLPAPKWFDGQRAAENRQGTLTEYCSTLMSLPTKISRCPHLLDFFKVRPDDLKLPTDNQTKKPETYLM
- soluble on expression in E. coli: soluble

Sequence: MEKSAPSIILNHWCVTWQGHHFLCRNLSNIKILNRRNGYTTLDLPLTLGDLTQYRLAHGLSENLMALSPYSWTIPFLVSSSETPGIELLPKVINDFGTPLSLAIKTNLPSIPAHQLLFYIIFLRPSPLTSMSCYARPLSLASTPSLEHHHHHH
- soluble on expression in E. coli: soluble

Sequence: MISVDTMTNASSTEGISLHHISVSDLDNNCYLLTTESDEGTQGLLIDAADNAPALLDLAESAGARITAVVTTHRHFDHVRALEDVLDTTKATHFASLGDSPRLPRSADTTLGEGDTLRWAGHNLRAHILRGHTQEGLALSIKIDGIYHLFVGDSLFPRGVGKTSTPEEFNQLLSDVKTRLFDVYPDTAVVHPGHGKPTTLGTERPHLEQWRQRGW
- soluble on expression in E. coli: not soluble

Sequence: SDMRQHEEYIADMALDPAKKLLLTASGDGCLGVFNIKRRRFELLSEPQSGDLTSVALMKYGKKVACGSSEGTIYLFNWNGFGATSDRFALRAESIDCIVPVTENLLCTSSTDGIIRAVNILPNRVVGTVGQHAGEPVEALALSHCGHFLASSGHDQRLKFWDMTQLRTVVVDDYRRRKKKGGPLRALSSKAWSTDDFFAGLREDEEDAKAPEEVVRESDDDDDDSD
- soluble on expression in E. coli: soluble

Sequence: MSLPAYKRVLLKLSGEALMGDDAFGINRSTIEGMVNDIAEIVRLGVQVAVVIGGGNIFRGVAGGAAGMDRATADYMGMLATMMNALALQDAMRHANIEGRVQSALRMDQVVEPYIRPRAIRQLEEGKVVIFAAGTGNPFFTTDTAAALRGSEIGAEIVLKATKVDGVYTADPKKDPSATRYTTISFDEAISRNLQVMDATAFALCRDQKLPIKVFSIQKPNALKRVIMGEDEGTLEGHHHHHH
- soluble on expression in E. coli: soluble

Sequence: MSLVDRNIGGSVTAPRIRVIEIDAFERDIRLRLPFRFGAATLEKAPQAFLRVRVEDEEGRTGLGATAEMMVPKWFDKNPAFTPAQNVDQLRTSIHTAAAASLEPSELATLFAAARLNEMETVRRLPGNPLAACFGPSLIARAALDAYCRLAGISFFEAVRGNLVGIGGPMLPGDIDADAASAMLAGLRPAGAISARHTIGLVDPITEGDIVDPVGDGLPESLEAVITRYGNRWFKIKLSGTIDADIDRLTRIAAVLDRLPDYRVTVDGNEQFGAPEQLAALLGQIEARPRLARLRAAIAFVEQPFSRAITMETPLGDLAAQLPFLIDESDDGDGAFAAARRLGYTGVSSKTCKGIYRSLMKAIRIRTGTAPGLFLSGEDLTCQAGLAVQQDLALVSLLGLSHVERNGHHYVAGMQGAPQAEKLRFAAAHPDLYEQGGDGPLLSIRDGRIAIASLGAVGYASGALPDFEAMTPMSEGHHHHHH
- soluble on expression in E. coli: soluble

Sequence: MAHHHHHHMQRMRRIGREEEAARLVWNHVSHCSSALLRQCIRRPNLLEEVTVALCRTMHRGISGRKDSWMGHRSLAVLRSGAALRQFTPALCIPLCAAALDCGVHFATVQQHVAEIYRWDERTERWVLNMVRLIADCHSALMRVPLNCSLHSSYMRGLVQRVAYELPTLSSTCSIEVQVPSRNKLLALWTIVNDDVANGRLRQLTCQLFLDPVARSAFKEMRLADEVDNCNSGTDGGGGSKCRVPRSTLKGLLNEEVFVSVAVNCTTEHAFAIFMNAFLSTRQARDKLRYMHLVLSEMPFESTDICPRCTTETGNCEVS
- soluble on expression in E. coli: not soluble

Sequence: MANRCRLKPYNRRQNNACSNRTHTLPANGLRNLRLLDLRTKVTELKHIGGQSTAAIADLAGEMRRLAKKSKMLLKGLWPFLSSTISAFKINQSLFKHYYKTVQLLNCKHRKKNY
- soluble on expression in E. coli: not soluble

Sequence: MTKPAPTPLYNEFTFFLKKYFSYKVQKISLNAGFTCPNRDGTKGLGGCTYCNNQTFNPEYCKTEKSVTRQLEEGKQFFAHKYPDMKYLAYFQAYTNTYAELEGLKGKYEEALSVDGVVGLVIGTRPDCMPDPLLRYLEELNKHTFLLVEYGIETTRDVTLKRINRGHTYADTVETVNRTAACGILTGGHVILGLPGETHDEIIAQAAELSRLPLTTLKMHQLQLIRGTKMAREFECRPEDFHLFSVDEYIDLVIDYVEHLRPDLILERFVSQSPKELLIAPDWGLKNYEFTARVQKRMKERGAYQGKAYLV
- soluble on expression in E. coli: not soluble

Sequence: MSLTIEDNHGTEGISLPIEGVAATDNRAFELLDRWGVELVAAPLQLVPFTVTGYTEEGGVANLGSHREPDLEALAAAQPSLIINGQRFAQYYDDIIALNPDATVVELDPRDGEPLDQELIRQAETLGEIFGEEEDAAKIVADFESALERAKTAYAAISDQTVMAVNVSGGNIGYIAPSVGRTYGPIFDLVGLTPALEVGNASSDHEGDDINVEAIAAANPDLILVMDRDGGTSTRNEADYVPAEQIVSDNEALANVKAVTDGYVYYAPADTYTNENIITYTEILNGMADMFEKAAQEGHHHHHH
- soluble on expression in E. coli: soluble

Sequence: MELWGRMLWALLSGPGRRGSTRGWAFSSWQPQPPLAGLSSAIELVSHWTGVFEKRGIPEARESSEYIVAHVLGAKTFQSLRPALWTQPLTSQQLQCIRELSSRRLQRMPVQYILGEWDFQGLSLRMVPPVFIPRPETEELVEWVLEEVAQRSHAVGSPGSPLILEVGCGSGAISLSLLSQLPQSRVIAVDKREAAISLTHENAQRLRLQDRIWIIHLDMTSERSWTHLPWGPMDLIVSNPPYVFHQDMEQLAPEIRSYEDPAALDGGEEGMDIITHILALAPRLLKDSGSIFLEVDPRHPELVSSWLQSRPDLYLNLVAVRRDFCGRPRFLHIRRSGP
- soluble on expression in E. coli: soluble

Sequence: MAEARPDSLTRSRAAKPAGEGAAFSPLYRQIKELLVQSLDRGEWKPGELIPSEIDLAARFQVSQGTVRKAVDELAAEHLLLRRQGKGTFVATHHEARVRYRFLRLAPDEEGEGGRAESRILECRRLRAPAEIARALELRAGETVVTIRRQLSMNHMPTVIDDLWLPGTHFRGLTLELLTASKAPLYGLFESEFGVSMVRADEKLRAVAASPEIAPLLGVEPGRPLLQVDRISYTYGDRPMEVRRGLYLTDHYHYRNSLN
- soluble on expression in E. coli: soluble

Sequence: MKITGVKAVFYSATGNTEEVVTAIAEKIAEKLGVSMEICNFTLPGGRTEVQTYAPSELVVFGTPVYAGRVPNKMLPVVQNNFKGEGALAVPVVTFGNRNFDNGLIELRNELENNGFHTIAGAGFAVSHVFSDKIAPGRPDEADREIMMRFAEAVAEKVEKMEEIPAPIEVRGEDPVGPYYTPLGTDGKPAVFLKAKPK
- soluble on expression in E. coli: not soluble

Sequence: MGSDKIHHHHHHMSIQSLLDYISVTPDIRQQGKVKHKLSAILFLTVCAVIAGADEWQEIEDFGHERLEWLKKYGDFDNGIPVDDTIARVVSNIDSLAFEKMFIEWMQECHEITDGEIIAIDGKTIRGSFDKGKRKGAIHMVSAFSNENGVVLGQVKTEAKSNEITAIPELLNLLYLKKNLITIDAMGCQKDIASKIKDKKADYLLAVKGNQGKLHHAFEEKFPVNVFSNYKGDSFSTQEISHGRKETRLHIVSNVTPELL
- soluble on expression in E. coli: not soluble

Sequence: MSLKRAIIIGATSGIGKEVAQRLLSEGWQIGIAGRRQSALEEFRQIAPEQIKIQSLDVTQEYSAGKLDALIHQLGGMDLFLLSSGIGFQNMELNMEIELNTARTNVEGFTRMVDTAFSYFRNNGGGHLAVISSIAGTKGLGVAPAYSATKRFQNTYIDALEQLSHLQKLDIHFTDIRPGFVATDLLNDGKHYPMLMKTDQVGRDIVRALHRKEGHHHHHH
- soluble on expression in E. coli: not soluble

Sequence: MAGDPNSMKFMSGKFCVLCGKQNVDLIDSLCVDCYVKSKKLIETPKRVTGKYCKICGAQWIRGKWIRTSATSLASVVEDIIARELGSKMRIDKNVDEFAFDIKSIWKDPSGNSFATIEFRGKVRGKSFSQEAVISLEMERELCDSCFRKKTRYYEAIVQLRSKGKIGVDDKKRAFFESFFSTSIVDNISDVIEGREGVDYYFMSKSVARKLVSMISSIVDVEVNESYQNEKMKNGKREAKLVISLRILEHHHHHH
- soluble on expression in E. coli: not soluble

Sequence: MSYAKVSHWQMASTEQLIIPPNNDPRPDDQLVIVVVTADGIASPIPLNVSRREVIRQVEMLNRNLTAANRGDNYQGQASQLYDWFIKPIKLILENKKIENISFILDRGLRSLPMATMYDRQSGQYLIEDYSVGLMPSLSLTNRDYAPLTGAQILAMGAEEFANQNPLPAAAVEVDTITNQLWRGSAFLNDRFTVDNFVQSLATKEYRLVHLATHGEFLPGNRNNSFVVFSDRSLDLDEFANVGLDKPIDLMVLSACRTAVGDFDAELGFAGLAVKTGVKTAIGSLWYVSDEATFALMTSFYDRLQPAPIKAKALQQAQLSLLRGEIRVVDGNLVLGDGTNISLADLPADIRQRLATQDLSHPYFWSGFTLVGSPWLEHHHHHH
- soluble on expression in E. coli: not soluble
